This passage reports Kd results from patent US7427671 (US Dept. of Health and Human Services, dated 2008).

This experiment deals with T1, human type α platelet derived growth factor receptor (T11 gene product) (human, UniProt P16234 24-1089).
T1 construct: In western blots and immunoprecipitations it came from cell lysates; also called type α PDGF-R; α PDGFR
As to the kind of experiment: Scatchard analysis of PDGF-BB binding to 32D-αR transfectants.

T1 sequence (P16234 24-1089): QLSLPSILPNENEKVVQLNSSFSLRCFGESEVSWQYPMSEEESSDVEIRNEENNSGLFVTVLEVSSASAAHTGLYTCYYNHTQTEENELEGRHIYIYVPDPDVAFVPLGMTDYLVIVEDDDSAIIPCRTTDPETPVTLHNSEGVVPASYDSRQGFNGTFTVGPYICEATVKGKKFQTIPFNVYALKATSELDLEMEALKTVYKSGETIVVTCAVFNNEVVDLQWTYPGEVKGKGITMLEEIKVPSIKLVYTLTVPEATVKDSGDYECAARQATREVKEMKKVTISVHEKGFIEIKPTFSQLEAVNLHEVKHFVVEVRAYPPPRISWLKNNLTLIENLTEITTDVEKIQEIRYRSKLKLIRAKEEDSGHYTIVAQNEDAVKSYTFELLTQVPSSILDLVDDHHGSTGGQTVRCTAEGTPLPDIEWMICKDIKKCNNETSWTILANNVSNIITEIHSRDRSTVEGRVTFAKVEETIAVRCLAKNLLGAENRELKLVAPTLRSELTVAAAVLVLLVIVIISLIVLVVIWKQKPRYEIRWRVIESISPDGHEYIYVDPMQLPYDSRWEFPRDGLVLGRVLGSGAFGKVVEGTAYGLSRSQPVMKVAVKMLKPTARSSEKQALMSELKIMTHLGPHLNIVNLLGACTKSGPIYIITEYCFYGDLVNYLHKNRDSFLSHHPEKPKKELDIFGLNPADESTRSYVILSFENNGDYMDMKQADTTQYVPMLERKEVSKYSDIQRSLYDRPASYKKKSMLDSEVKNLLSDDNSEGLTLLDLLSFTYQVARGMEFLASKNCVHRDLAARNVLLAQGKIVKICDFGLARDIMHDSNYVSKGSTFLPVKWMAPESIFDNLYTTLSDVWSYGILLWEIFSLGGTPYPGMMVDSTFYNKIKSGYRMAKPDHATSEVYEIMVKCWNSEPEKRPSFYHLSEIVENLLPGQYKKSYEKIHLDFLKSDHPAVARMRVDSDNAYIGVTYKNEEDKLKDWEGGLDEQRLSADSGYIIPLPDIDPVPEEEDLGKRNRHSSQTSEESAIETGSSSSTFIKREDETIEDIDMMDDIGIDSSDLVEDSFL

B1: recombinant PDGF-BB (ligand, UniProt P01127 82-190, looked up)
chain: SLGSLTIAEPAMIAECKTRTEVFEISRRLIDRTNANFLVWPPCVEVQRCSGCCNNRNVQCRPTQVQLRPVQVRKIEIVRKKPIFKKATVTLEDHLACKCETVAAARPVT
notes: Homodimer of B chains; also called BB homodimer
B1 returned a Kd of 0.4 nM.

One may read the Kd as the free concentration of one partner at which half of the binding sites on the other are occupied at equilibrium, for simple one-to-one binding. Lower therefore signals tighter binding.
